Data as given in US20210388087A1 (Chugai, published 2021).
Substitutions are numbered along the chain they refer to. Values belong to the binder of their own block, whether it stands above or below them.

Target: T1, CD3 epsilon homodimer protein (UniProt P07766 23-126)
T1 construct: also called CD3 (CD3 epsilon)
Assay: SPR, CD3 epsilon homodimer on chip, one-arm antibody as analyte;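 also: surface plasmon resonance at 25 °C with CD3 epsilon homodimer amine-coupled to a CM4 sensor chip, antibody injected as analyte, HBS-EP+ as running buffer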

T1 sequence (P07766 23-126): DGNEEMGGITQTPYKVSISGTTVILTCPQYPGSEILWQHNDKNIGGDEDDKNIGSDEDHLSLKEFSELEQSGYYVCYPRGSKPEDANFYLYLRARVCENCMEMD

B1: CE115HA000 V11L (antibody, human IgG1, kappa, L234A L235A, N297A, name in Kabat numbering)
heavy: QVQLVESGGGLVQPGRSLRLSCAASGFTFSNAWMHWVRQAPGKGLEWVAQIKAKSNNYATYYAESVKGRFTISRDDSKNSLYLQMNSLKTEDTAVYYCRYVHYGAYYGVDAWGQGTTVTVSSASTKGPSVFPLAPSSKSTSGGTAALGCLVKDYFPEPVTVSWNSGALTSGVHTFPAVLQSSGLYSLSSVVTVPSSSLGTQTYICNVNHKPSNTKVDKKVEPKSCDKTHTCPPCPAPEAAGGPSVFLFPPKPKDTLMISRTPEVTCVVVDVSHEDPEVKFNWYVDGVEVHNAKTKPREEQYASTYRVVSVLTVLHQDWLNGKEYKCKVSNKALPAPIEKTISKAKGQPREPQVYTLPPSRCELTKNQVSLSCAVKGFYPSDIAVEWESNGQPENNYKTTPPVLDSDGSFFLVSKLTVDKSRWQQGNVFSCSVMHEALHNHYTQKSLSLSPDYKDDDDK
chain: EPKSSDKTHTCPPCPAPELLGGPSVFLFPPKPKDTLMISRTPEVTCVVVDVSHEDPEVKFNWYVDGVEVHNAKTKPREEQYNSTYRVVSVLTVLHQDWLNGKEYKCKVSNKALPAPIEKTISKAKGQPREPQVCTLPPSRDELTKNQVSLWCLVKGFYPSDIAVEWESNGQPENNYKTTPPVLDSDGSFFLYSKLTVDKSRWQQGNVFSCSVMHEALHNRYTQKSLSLSP
light: DIVMTQSPLSLPVTPGEPASISCRSSQSLVHSNRNTYLHWYQQKPGQAPRLLIYKVSNRFSGVPDRFSGSGSGTDFTLKISRVEAEDVGVYYCGQGTQVPYTFGQGTKLEIKRTVAAPSVFIFPPSDEQLKSGTASVVCLLNNFYPREAKVQWKVDNALQSGNSQESVTEQDSKDSTYSLSSTLTLSKADYEKHKVYACEVTHQGLSSPVTKSFNRGEC
notes: one-arm antibody
KD ratio (KD of CE115HA000/KD of altered form): 0.83

B7: CE115HA000 V95S (antibody, human IgG1, kappa, L234A L235A, N297A, name in Kabat numbering)
heavy: B1 heavy with L11V, V101S
chain: B1 chain
light: B1 light
notes: one-arm antibody
KD ratio (KD of CE115HA000/KD of altered form): 4.61

B8: CE115HA000 W33D (antibody, human IgG1, kappa, L234A L235A, N297A, name in Kabat numbering)
heavy: B1 heavy with L11V, W33D
chain: B1 chain
light: B1 light
notes: one-arm antibody
KD ratio (KD of CE115HA000/KD of altered form): 1690

B9: CE115HA000 V95K (antibody, human IgG1, kappa, L234A L235A, N297A, name in Kabat numbering)
heavy: B1 heavy with L11V, V101K
chain: B1 chain
light: B1 light
notes: one-arm antibody
KD ratio (KD of CE115HA000/KD of altered form): 1.15

B10: CE115HA000 V100cD (antibody, human IgG1, kappa, L234A L235A, N297A, name in Kabat numbering)
heavy: B1 heavy with L11V, V109D
chain: B1 chain
light: B1 light
notes: one-arm antibody
KD ratio (KD of CE115HA000/KD of altered form): 1.64

B12: CE115HA000 V95E (antibody, human IgG1, kappa, L234A L235A, N297A, name in Kabat numbering)
heavy: B1 heavy with L11V, V101E
chain: B1 chain
light: B1 light
notes: one-arm antibody
KD ratio (KD of CE115HA000/KD of altered form): 50.5

B17: CE115HA000 V100cE (antibody, human IgG1, kappa, L234A L235A, N297A, name in Kabat numbering)
heavy: B1 heavy with L11V, V109E
chain: B1 chain
light: B1 light
notes: one-arm antibody
KD ratio (KD of CE115HA000/KD of altered form): 1.31

B19: CE115HA000 W33F (antibody, human IgG1, kappa, L234A L235A, N297A, name in Kabat numbering)
heavy: B1 heavy with L11V, W33F
chain: B1 chain
light: B1 light
notes: one-arm antibody
KD ratio (KD of CE115HA000/KD of altered form): 0.66

B21: CE115HA000 W33H (antibody, human IgG1, kappa, L234A L235A, N297A, name in Kabat numbering)
heavy: B1 heavy with L11V, W33H
chain: B1 chain
light: B1 light
notes: one-arm antibody
KD ratio (KD of CE115HA000/KD of altered form): 4.96

B22: CE115HA000 W33Y (antibody, human IgG1, kappa, L234A L235A, N297A, name in Kabat numbering)
heavy: B1 heavy with L11V, W33Y
chain: B1 chain
light: B1 light
notes: one-arm antibody
KD ratio (KD of CE115HA000/KD of altered form): 0.69

B23: CE115HA000 Y55G (antibody, human IgG1, kappa, L234A L235A, N297A, name in Kabat numbering)
heavy: B1 heavy with L11V, Y58G
chain: B1 chain
light: B1 light
notes: one-arm antibody
KD ratio (KD of CE115HA000/KD of altered form): 0.99

B24: CE115HA000 V95G (antibody, human IgG1, kappa, L234A L235A, N297A, name in Kabat numbering)
heavy: B1 heavy with L11V, V101G
chain: B1 chain
light: B1 light
notes: one-arm antibody
KD ratio (KD of CE115HA000/KD of altered form): 78300

B25: CE115HA000 Y55D (antibody, human IgG1, kappa, L234A L235A, N297A, name in Kabat numbering)
heavy: B1 heavy with L11V, Y58D
chain: B1 chain
light: B1 light
notes: one-arm antibody
KD ratio (KD of CE115HA000/KD of altered form): 0.89

B26: CE115HA000 W33A (antibody, human IgG1, kappa, L234A L235A, N297A, name in Kabat numbering)
heavy: B1 heavy with L11V, W33A
chain: B1 chain
light: B1 light
notes: one-arm antibody
KD ratio (KD of CE115HA000/KD of altered form): 30

B28: CE115HA000 V95A (antibody, human IgG1, kappa, L234A L235A, N297A, name in Kabat numbering)
heavy: B1 heavy with L11V, V101A
chain: B1 chain
light: B1 light
notes: one-arm antibody
KD ratio (KD of CE115HA000/KD of altered form): 3.15

B32: CE115HA000 V95D (antibody, human IgG1, kappa, L234A L235A, N297A, name in Kabat numbering)
heavy: B1 heavy with L11V, V101D
chain: B1 chain
light: B1 light
notes: one-arm antibody
KD ratio (KD of CE115HA000/KD of altered form): 108

B33: CE115HA000 V100cP (antibody, human IgG1, kappa, L234A L235A, N297A, name in Kabat numbering)
heavy: B1 heavy with L11V, V109P
chain: B1 chain
light: B1 light
notes: one-arm antibody
KD ratio (KD of CE115HA000/KD of altered form): 0.97

Other lines, results leading:

KD ratio (KD of CE115HA000/KD of altered form): 0.66
B2: CE115HA000 Y59D (antibody, human IgG1, kappa, L234A L235A, N297A, name in Kabat numbering)
heavy: B1 heavy with L11V, Y62D
chain: B1 chain
light: B1 light
notes: one-arm antibody

KD ratio (KD of CE115HA000/KD of altered form): 4.81
B3: CE115HA000 Y58D (antibody, human IgG1, kappa, L234A L235A, N297A, name in Kabat numbering)
heavy: B1 heavy with L11V, Y61D
chain: B1 chain
light: B1 light
notes: one-arm antibody

KD ratio (KD of CE115HA000/KD of altered form): 1.21
B4: CE115HA000 Y58L (antibody, human IgG1, kappa, L234A L235A, N297A, name in Kabat numbering)
heavy: B1 heavy with L11V, Y61L
chain: B1 chain
light: B1 light
notes: one-arm antibody

KD ratio (KD of CE115HA000/KD of altered form): 1.24
B5: CE115HA000 Y58Q (antibody, human IgG1, kappa, L234A L235A, N297A, name in Kabat numbering)
heavy: B1 heavy with L11V, Y61Q
chain: B1 chain
light: B1 light
notes: one-arm antibody

KD ratio (KD of CE115HA000/KD of altered form): 1.22
B6: CE115HA000 Y58S (antibody, human IgG1, kappa, L234A L235A, N297A, name in Kabat numbering)
heavy: B1 heavy with L11V, Y61S
chain: B1 chain
light: B1 light
notes: one-arm antibody

KD ratio (KD of CE115HA000/KD of altered form): 47200
B11: CE115HA000 Y97G (antibody, human IgG1, kappa, L234A L235A, N297A, name in Kabat numbering)
heavy: B1 heavy with L11V, Y103G
chain: B1 chain
light: B1 light
notes: one-arm antibody

KD ratio (KD of CE115HA000/KD of altered form): 65.7
B13: CE115HA000 Y97D (antibody, human IgG1, kappa, L234A L235A, N297A, name in Kabat numbering)
heavy: B1 heavy with L11V, Y103D
chain: B1 chain
light: B1 light
notes: one-arm antibody

KD ratio (KD of CE115HA000/KD of altered form): 41300
B14: CE115HA000 Y97A (antibody, human IgG1, kappa, L234A L235A, N297A, name in Kabat numbering)
heavy: B1 heavy with L11V, Y103A
chain: B1 chain
light: B1 light
notes: one-arm antibody

KD ratio (KD of CE115HA000/KD of altered form): 0.79
B15: CE115HA000 Y59S (antibody, human IgG1, kappa, L234A L235A, N297A, name in Kabat numbering)
heavy: B1 heavy with L11V, Y62S
chain: B1 chain
light: B1 light
notes: one-arm antibody

KD ratio (KD of CE115HA000/KD of altered form): 1.06
B16: CE115HA000 Y58A (antibody, human IgG1, kappa, L234A L235A, N297A, name in Kabat numbering)
heavy: B1 heavy with L11V, Y61A
chain: B1 chain
light: B1 light
notes: one-arm antibody

KD ratio (KD of CE115HA000/KD of altered form): 0.74
B18: CE115HA000 Y59A (antibody, human IgG1, kappa, L234A L235A, N297A, name in Kabat numbering)
heavy: B1 heavy with L11V, Y62A
chain: B1 chain
light: B1 light
notes: one-arm antibody

KD ratio (KD of CE115HA000/KD of altered form): 1.86
B20: CE115HA000 Y58N (antibody, human IgG1, kappa, L234A L235A, N297A, name in Kabat numbering)
heavy: B1 heavy with L11V, Y61N
chain: B1 chain
light: B1 light
notes: one-arm antibody

KD ratio (KD of CE115HA000/KD of altered form): 0.61
B27: CE115HA000 Y59E (antibody, human IgG1, kappa, L234A L235A, N297A, name in Kabat numbering)
heavy: B1 heavy with L11V, Y62E
chain: B1 chain
light: B1 light
notes: one-arm antibody

KD ratio (KD of CE115HA000/KD of altered form): 0.66
B29: CE115HA000 Y58K (antibody, human IgG1, kappa, L234A L235A, N297A, name in Kabat numbering)
heavy: B1 heavy with L11V, Y61K
chain: B1 chain
light: B1 light
notes: one-arm antibody

KD ratio (KD of CE115HA000/KD of altered form): 5.65
B30: CE115HA000 Y55S (antibody, human IgG1, kappa, L234A L235A, N297A, name in Kabat numbering)
heavy: B1 heavy with L11V, Y58S
chain: B1 chain
light: B1 light
notes: one-arm antibody

KD ratio (KD of CE115HA000/KD of altered form): 12400
B31: CE115HA000 Y97P (antibody, human IgG1, kappa, L234A L235A, N297A, name in Kabat numbering)
heavy: B1 heavy with L11V, Y103P
chain: B1 chain
light: B1 light
notes: one-arm antibody
